doi:10.1101/465575 (bioRxiv, 2018)
Where a chain is given by its changes, count along the chain named.

T1: Rv0081-S/Q-A S48A;S49A;S52A;Q53A (Mycobacterium tuberculosis) (UniProt P9WMI7)
T1 sequence: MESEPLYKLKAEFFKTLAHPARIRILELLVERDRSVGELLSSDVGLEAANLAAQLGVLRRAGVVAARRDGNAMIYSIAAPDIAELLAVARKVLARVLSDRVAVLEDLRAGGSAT

B1: Rv0081 transcription factor of Mycobacterium tuberculosis (natural protein)
chain: T1 sequence with A48S, A49S, A52S, A53Q

Columns and labels:
[1] = target: T1, Rv0081-S/Q-A S48A;S49A;S52A;Q53A (Mycobacterium tuberculosis); assay: SPR
SEC-MALS = target: the molecule itself; assay: SEC-MALS

Molecule	Kd [1] [µM]	stoichiometry N (SEC-MALS)
ATCCGCACTATCTGATAAATTCTTCAACTCGTC (double strand) [ds-Wt]	19.6	
B1		2
